According to article PMC9541529 (The Febs Journal, 2022):

T1: Sup35 NM prion protein (NM domains) (S. cerevisiae, UniProt P05453 1-253)
T1 sequence: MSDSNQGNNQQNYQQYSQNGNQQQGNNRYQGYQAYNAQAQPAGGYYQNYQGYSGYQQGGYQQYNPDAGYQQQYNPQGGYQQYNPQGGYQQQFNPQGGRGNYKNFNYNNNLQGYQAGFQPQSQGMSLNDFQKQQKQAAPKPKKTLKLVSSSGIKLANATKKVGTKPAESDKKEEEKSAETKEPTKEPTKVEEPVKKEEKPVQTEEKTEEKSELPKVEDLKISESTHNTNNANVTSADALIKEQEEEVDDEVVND

B1: Hsp104 N‐terminal domain (NTD), wild type (domain or fragment)
chain: MNDQTQFTERALTILTLAQKLASDHQHPQLQPIHILAAFIETPEDGSVPYLQNLIEKGRYDYDLFKKVVNRNLVRIPQQQPAPAEITPSYALGKVLQDAAKIQKQQKDSFIAQDHILFALFNDSSIQQIFKEAQVDIEAIKQQALELRGNTR

What was measured:
[1] = target: B1; experiment: NMR titration
tau 2N4R = tau 2N4R (human, UniProt P10636-8 1-441); experiment: co-sedimentation
[2] = target: T1, Sup35 NM prion protein (NM domains); experiment: NMR titration

Row | Binder | binding result [1] | binding result (tau 2N4R) | binding result [2]
1 | PhoA^349–471 (unfolded PhoA protein fragment, residues 349–471) (domain or fragment) DKQDHAANPCGQIGETVDLDEAVQRALEFAKKEGNTLVIVTADHAHASQIVAPDTKAPGLTQALNTKDGAVMVMSYGNSEEDSQEHTGSQLRIAAYGPHAANVVGLTDQTDLFYTMKAALGLK | binds |  | 
2 | α‐lactalbumin (natural protein) EQLTKCEVFRELKDLKGYGGVSLPEWVCTTFHTSGYDTQAIVQNNDSTEYGLFQINNKIWCKDDQNPHSSNICNISCDKFLDDDLTDDIMCVKKILDKVGINYWLAHKALCSEKLDQWLCEKL | binds |  | 
3 | B1 |  | binds | binds
